Laboratory results as given in patent publication US20220090005A1, “Supplemented Serum-Containing Culture Medium for Enhanced Arpe-19 Growth and Human Cytomegalovirus Vaccine Production” (priority 2019, published 2022).

System: ARPE-19 cells
Experiment: Screening of individual supplements on ARPE-19 cell growth, 96-well plate, Hoechst nuclear stain
Format: cell-based, human
Details: components with p-value of <0.05; DMEM/F12 2% FBS, days 2-8 post plant, FIG. 1

B1: EGF: Epidermal Growth Factor, growth factor supplement (protein, UniProt P01133 23-1207, looked up)
Pro-epidermal growth factor: PQHWSCPEGTLAGNGNSTCVGPAPFLIFSHGNSIFRIDTEGTNYEQLVVDAGVSVIMDFHYNEKRIYWVDLERQLLQRVFLNGSRQERVCNIEKNVSGMAINWINEEVIWSNQQEGIITVTDMKGNNSHILLSALKYPANVAVDPVERFIFWSSEVAGSLYRADLDGVGVKALLETSEKITAVSLDVLDKRLFWIQYNREGSNSLICSCDYDGGSVHISKHPTQHNLFAMSLFGDRIFYSTWKMKTIWIANKHTGKDMVRINLHSSFVPLGELKVVHPLAQPKAEDDTWEPEQKLCKLRKGNCSSTVCGQDLQSHLCMCAEGYALSRDRKYCEDVNECAFWNHGCTLGCKNTPGSYYCTCPVGFVLLPDGKRCHQLVSCPRNVSECSHDCVLTSEGPLCFCPEGSVLERDGKTCSGCSSPDNGGCSQLCVPLSPVSWECDCFPGYDLQLDEKSCAASGPQPFLLFANSQDIRHMHFDGTDYGTLLSQQMGMVYALDHDPVENKIYFAHTALKWIERANMDGSQRERLIEEGVDVPEGLAVDWIGRRFYWTDRGKSLIGRSDLNGKRSKIITKENISQPRGIAVHPMAKRLFWTDTGINPRIESSSLQGLGRLVIASSDLIWPSGITIDFLTDKLYWCDAKQSVIEMANLDGSKRRRLTQNDVGHPFAVAVFEDYVWFSDWAMPSVMRVNKRTGKDRVRLQGSMLKPSSLVVVHPLAKPGADPCLYQNGGCEHICKKRLGTAWCSCREGFMKASDGKTCLALDGHQLLAGGEVDLKNQVTPLDILSKTRVSEDNITESQHMLVAEIMVSDQDDCAPVGCSMYARCISEGEDATCQCLKGFAGDGKLCSDIDECEMGVPVCPPASSKCINTEGGYVCRCSEGYQGDGIHCLDIDECQLGEHSCGENASCTNTEGGYTCMCAGRLSEPGLICPDSTPPPHLREDDHHYSVRNSDSECPLSHDGYCLHDGVCMYIEALDKYACNCVVGYIGERCQYRDLKWWELRHAGHGQQQKVIVVAVCVVVLVMLLLLSLWGAHYYRTQKLLSKNPKNPYEESSRDVRSRRPADTEDGMSSCPQPWFVVIKEHQDLKNGGQPVAGEDGQAADGSMQPTSWRQEPQLCGMGTEQGCWIPVSSDKGSCPQVMERSFHMPSYGTQTLEGGVEKPHSLLSANPLWQQRALDPPHQMELTQ
modifications: Pro-epidermal growth factor
notes: Epidermal Growth Factor, growth factor supplement
  effect on cell growth: positive effect on cell growth
